According to the Immune Epitope Database (IEDB):
pIC50: −log10 of the molar value.

Key:
HLA-A*68:02 = experiment: IEDB peptide-MHC binding, cellular MHC/competitive/fluorescence; ≥ and ≤ were set here for values at or beyond the usual limits of such assays
HLA-A*02:02 = experiment: IEDB peptide-MHC binding, purified MHC/competitive/radioactivity; ≥ and ≤ were set here for values at or beyond the usual limits of such assays
HLA-A*02:03 = experiment: as above
HLA-A*02:06 = experiment: as above
HLA-A*02:01 = experiment: as above
[1] = source organism: Vaccinia virus WR
[2] = source organism: Hepacivirus hominis
[3] = source organism: Mammarenavirus lassaense

Sequence | pIC50 (HLA-A*68:02; [1]) | pIC50 (HLA-A*02:02; [1]) | pIC50 (HLA-A*02:03; [1]) | pIC50 (HLA-A*02:06; [1]) | pIC50 (HLA-A*02:01; [1]) | also measured
FLQISRVNDL | 5.13 | 8.28 | 7.17 | 6.24 | 7.89 | 
SMMVILPDKI | 5.14 | 7.55 | 7.72 | 8.24 | 8.21 | 
GLLGCIITSL |  |  |  |  |  | pIC50 (HLA-A*68:02; [2]): 4.31; pIC50 (HLA-A*02:02; [2]): 7.46; pIC50 (HLA-A*02:03; [2]): 8.51; pIC50 (HLA-A*02:06; [2]): 6.50; pIC50 (HLA-A*02:01; [2]): 7.82
ITLILSNKLL | 5.19 | 5.96 | 5.33 | 5.41 | 5.66 | 
ALTDVEKRIL | 4.86 | 7.01 | 6.90 | 6.03 | 6.37 | 
YLVTRNADV |  |  |  |  |  | pIC50 (HLA-A*68:02; [2]): ≤ 4.15; pIC50 (HLA-A*02:02; [2]): 7.26; pIC50 (HLA-A*02:03; [2]): 7.21; pIC50 (HLA-A*02:06; [2]): 5.36; pIC50 (HLA-A*02:01; [2]): 6.53
ILFLTLIVFT |  |  |  |  |  | pIC50 (HLA-A*68:02; source organism: SARS-CoV1): 5.15; pIC50 (HLA-A*02:02; source organism: SARS-CoV1): 7.62; pIC50 (HLA-A*02:03; source organism: SARS-CoV1): 5.97; pIC50 (HLA-A*02:06; source organism: SARS-CoV1): 6.15; pIC50 (HLA-A*02:01; source organism: SARS-CoV1): 7.68
ALLADKFPV |  |  |  |  |  | pIC50 (HLA-A*68:02; source organism: SARS-CoV1): 4.89; pIC50 (HLA-A*02:02; source organism: SARS-CoV1): 7.54; pIC50 (HLA-A*02:03; source organism: SARS-CoV1): 6.22; pIC50 (HLA-A*02:06; source organism: SARS-CoV1): 7.64; pIC50 (HLA-A*02:01; source organism: SARS-CoV1): 8.77
VMPEKRNVV | 5.18 | 5.96 | 7.64 | 5.48 | 6.31 | 
RLLDLSSWFT |  |  |  |  |  | pIC50 (HLA-A*68:02; [2]): 4.95; pIC50 (HLA-A*02:02; [2]): 6.52; pIC50 (HLA-A*02:03; [2]): 6.50; pIC50 (HLA-A*02:06; [2]): 7.09; pIC50 (HLA-A*02:01; [2]): 7.70
MMQNDYGGM | ≤ 4.15 | 5.97 | 5.56 | 5.78 | 5.89 | 
KTIISEEYL | 4.96 | 6.04 | 5.91 | 6.82 | 6.16 | 
FLLFLVLIML |  |  |  |  |  | pIC50 (HLA-A*68:02; source organism: SARS-CoV1): 5.23; pIC50 (HLA-A*02:02; source organism: SARS-CoV1): 5.80; pIC50 (HLA-A*02:03; source organism: SARS-CoV1): 5.86; pIC50 (HLA-A*02:06; source organism: SARS-CoV1): 5.53; pIC50 (HLA-A*02:01; source organism: SARS-CoV1): 6.85
TLLGCWSFVL |  |  |  |  |  | pIC50 (HLA-A*68:02; [2]): 4.58; pIC50 (HLA-A*02:02; [2]): 7.10; pIC50 (HLA-A*02:03; [2]): 6.06; pIC50 (HLA-A*02:06; [2]): 6.60; pIC50 (HLA-A*02:01; [2]): 7.77
LLWDYMCIS |  |  |  |  |  | pIC50 (HLA-A*68:02; [3]): 4.90; pIC50 (HLA-A*02:02; [3]): 6.83; pIC50 (HLA-A*02:03; [3]): 6.22; pIC50 (HLA-A*02:06; [3]): 6.39; pIC50 (HLA-A*02:01; [3]): 7.35
VLALYSPPLI | 4.84 | 7.80 | 7.00 | 6.06 | 7.26 | 
QLLKILDNL | 4.66 | 6.64 | 6.50 | 6.87 | 6.36 | 
SILSLETVKM | 4.95 | 6.69 | 6.34 | 6.09 | 5.88 | 
VLQAGITRV |  |  |  |  |  | pIC50 (HLA-A*68:02; [2]): 4.45; pIC50 (HLA-A*02:02; [2]): 7.01; pIC50 (HLA-A*02:03; [2]): 7.92; pIC50 (HLA-A*02:06; [2]): 6.41; pIC50 (HLA-A*02:01; [2]): 7.25
DMLKLFTHDI | 5.19 | 6.71 | 7.80 | 5.53 | 5.84 | 
RLVPGATYAL |  |  |  |  |  | pIC50 (HLA-A*68:02; [2]): 4.34; pIC50 (HLA-A*02:02; [2]): 7.92; pIC50 (HLA-A*02:03; [2]): 6.08; pIC50 (HLA-A*02:06; [2]): 6.08; pIC50 (HLA-A*02:01; [2]): 6.82
LLNMRDLIVT | 4.48 | 5.85 | 6.25 | 6.15 | 5.69 | 
ATLNTLITL | 5.27 | 6.43 | 6.24 | 8.02 | 7.24 | 
GMSIVCIVA | 5.01 | 6.72 | 6.18 | 5.35 | 7.08 | 
YLSGTDDEVI | 4.80 | 8.20 | 6.68 | 6.02 | 6.66 | 
SLVKESMASL | 5.10 | 6.00 | 8.11 | 5.84 | 5.63 | 
GIAIFNNRNL | 4.96 | 8.29 | 5.69 | 5.33 | 5.87 | 
VLAGYGAGI |  |  |  |  |  | pIC50 (HLA-A*68:02; [2]): 4.83; pIC50 (HLA-A*02:02; [2]): 7.96; pIC50 (HLA-A*02:03; [2]): 7.74; pIC50 (HLA-A*02:06; [2]): 5.60; pIC50 (HLA-A*02:01; [2]): 6.39
SLVYGIRCV | 4.29 | 5.53 | 8.42 | 6.77 | 6.52 | 
